From article PMC4828840, “Structural insight into the cooperation of chloroplast chaperonin subunits” (BMC Biology, 2016)
Blank lines part the entries; values can stand above or below the molecule they belong to.

Experiments:
[1] = target: CPN60β1 homo-oligomer (Chlamydomonas reinhardtii); assay: crystal structure; apo CPN60β1 homo-oligomer, 3.8 Å, space group P21, molecular replacement with apo GroEL
[2] = target: CPN60β1 homo-oligomer (Chlamydomonas reinhardtii)
[3] = target: T1, GroEL (E. coli, UniProt P0A6F5 1-548); assay: SEC; gel filtration, Superdex 200; 2 μM chaperonin and 10 μM GroES; buffer with 50 μM AMP-PNP; fractions on SDS-PAGE, Coomassie; settings: both partners purified
T1 construct: GroEL, group I chaperonin of E. coli; Purification of proteins is in Additional file 1; copies: 14

stoichiometry N [1]: 14 subunits
Molecule: CPN60β1 homo-oligomer (natural protein)

inhibition of the ATPase activity of CPN60β1 (0.2 μM chaperonin, 0.4 μM co-chaperonin, 25 °C) [2]: 50%
Molecule: mitochondrial co-chaperonin Hsp10 from mouse (from UniProt Q64433 1-102) (natural protein)

binding result [3]: binds
B1: GroES (natural protein, E. coli, UniProt P0A6F9 1-97, looked up)
chain: MNIRPLHDRVIVKRKEVETKSAGGIVLTGSAAAKSTRGEVLAVGNGRILENGEVKPLDVKVGDIVIFNDGYGVKSEKIDNEEVLIMSESDILAIVEA
notes: GroES, co-chaperonin of E. coli; Purification of proteins is in Additional file 1
